Laboratory results from US20120149028A1 (LUDWIG MAXIMILIANS UNIVERSITAT M NCHEN, published 2012).

Biological target: T1, endogenous PCNA (proliferating cell nuclear antigen) in HeLa cells (human (endogenous in HeLa cells), UniProt P12004 1-261)
T1 construct: whole, on cells; Intracellular (nuclear) endogenous protein in living or fixed HeLa cells, not on the surface
Experiment: GFP fusion expressed in HeLa cells, epifluorescence microscopy
Experimental: First, it was investigated, whether transiently expressed PCNA3p16-GFP colocalizes with RFP-PCNA or HcRedLigase, another S phase marker. To do so, HeLa cells were seeded on coverslips and transiently double transfected with expression vectors coding for RFP-PCNA or HcRed-Ligase and vector coding for PCNA-Chromobody PCNA3p16-GFP. 24 h after transfection cells were fixed in 4% PFA for 15 minutes at room temperature, permeabilized with 0,2% Triton-X-100 in PBS and the DNA was counterstained with DAPI. Slides were mounted in VectaShield and further analyzed by epifluorescence microscopy with appropriate filtersets for DAPI (D360_{—}40X/HQ460_{—}40M), GFP (HQ480_{—}40X/HQ535_{—}50M) and red fluorescent proteins (HQ565_{—}30X/HQ620_{—}60M) and an 63X/1.3 NA Plan Apo oil objective. As expected, RFP-PCNA as well as HcRed-Ligase localized to DNA replication sites in the nucleus of the cells. In both cases a colocalization of RFP-PCNA and HcRed-Ligase with the Chromobody PCNA3p16-GFP was detected (FIG. 3 A). […]
To confirm that PCNA3p16-GFP recognizes endogenous PCNA located at active DNA replication sites, an antibody staining against PCNA and a BrdU pulse-chase experiment were performed. […] The primary anti-PCNA antibody (clone 16D10) (1:400) was detected by a secondary antibody coupled to the fluorescent dye Alexa568. […]

T1 sequence (P12004 whole entry): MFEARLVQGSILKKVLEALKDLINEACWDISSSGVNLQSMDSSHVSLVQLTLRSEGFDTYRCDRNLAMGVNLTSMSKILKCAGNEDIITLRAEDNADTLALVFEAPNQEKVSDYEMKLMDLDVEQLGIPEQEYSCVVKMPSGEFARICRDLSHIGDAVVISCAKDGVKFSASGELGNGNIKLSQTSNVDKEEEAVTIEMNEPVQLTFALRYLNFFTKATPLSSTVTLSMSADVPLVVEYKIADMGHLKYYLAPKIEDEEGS

B1: variant PCNA-Chromobody of SEQ ID NO 18 fused to GFP (VHH)
VHH: NVQLNESGGGLVQPGGSLRLSCAASGFTFSSYAMSWVRQAPGKGLEWVSEISPSGAVKAYSDSVKGRFTISRDNAKNRLYLQMNSLTPEDTGEYFCTKVQSPRTRIPAPSSQGTQVTVSS
notes: Expressed in HeLa cells as a GFP fusion; not shown: linker and GFP
binding result: binds
